Data as given in paper PMC3792966.

Molecular target: FevR of F. holarctica LVS fused to the Zif protein (F. holarctica LVS)
Assay: two-hybrid

MglA/SspA complex of the bridge two-hybrid system (MglA of F. tularensis SCHU S4 fused to ω, with Ss
β-galactosidase activity in strain AW23 after 300 min: 1070 AU
β-galactosidase activity in strain AW24 after 300 min: 1300 AU
